According to patent US20150037340A1 (PEIRRE FABRE MEDICAMENT, published 2015):

Legend:
[1] = target: T1, recombinant human Axl-Fc (R and D Systems, cat No 154-AL / 154AL/CF) (human, UniProt P30530 26-451); experiment: competition ELISA: rhAxl-Fc pre-incubated with the antibody, loaded on coated rhGas6 (blocked ligand), bound rhAxl-Fc detected with anti-human IgG-HRP
T1 construct: Bought protein; also called rhAxl-Fc; rh Axl-Fc protein; not shown: human IgG Fc portion (detected with anti-human IgG Fc)
T1 sequence: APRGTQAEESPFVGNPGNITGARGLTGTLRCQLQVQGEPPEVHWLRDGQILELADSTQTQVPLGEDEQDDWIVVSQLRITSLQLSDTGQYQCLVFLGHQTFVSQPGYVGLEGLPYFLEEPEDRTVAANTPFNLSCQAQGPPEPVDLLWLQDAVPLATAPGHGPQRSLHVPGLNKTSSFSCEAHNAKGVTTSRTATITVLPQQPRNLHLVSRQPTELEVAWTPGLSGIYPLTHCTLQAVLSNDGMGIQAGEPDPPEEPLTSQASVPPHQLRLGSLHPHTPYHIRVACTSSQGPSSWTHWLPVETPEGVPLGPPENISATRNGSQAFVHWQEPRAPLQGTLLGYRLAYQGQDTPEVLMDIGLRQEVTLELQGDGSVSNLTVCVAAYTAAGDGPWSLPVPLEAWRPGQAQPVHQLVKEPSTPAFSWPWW
Protocol: To further characterize the 1613F12, Gas6 competition assays were performed. In this assay, the free rhAxl-Fc protein and the 1613F12 are incubated to form antigen-antibody complex and then the complexes are loaded on Gas6-coated surface in the assay plate. The unbound antibody-antigen complexes are washed out before adding enzyme-linked secondary antibody against the human Fc portion of the rhAxl-Fc protein. The substrate is then added and the antigen concentration can be determined by the signal strength elicited by the enzyme-substrate reaction.
Briefly reaction mixture comprising the rhAxl-Fc protein in the presence or not of the anti-Axl Mabs to be tested, are prepared on a separate saturated (0.5% gelatin in PBS 1×) plate. Serial 1: 2 dilutions (starting from 80 μg/ml on 12 columns) of murine anti-Axl antibodies are performed. […] After homogenisation, the competition samples are loaded on Gas6-coated plates with a 6 μg/m rhGas6 solution in PBS (R and D Systems cat No 885-GS-CS/CF). After incubation and several washes, bound rhAxl-Fc proteins are detected using a goat anti-Human IgG-HRP (Jackson, ref. 109-035-098). Once bound, the TMB substrate is added to the plates. The reaction is stopped by addition of 1M H₂SO₄ acid solution and the obtained optical densities read at 450 nm using a microplate reader instrument.

[2] = target: T1, recombinant human Axl-Fc (R and D …); experiment: sandwich ELISA: plate coated with the antibody, rhAxl-Fc titrated (the axis on the sheet reads 'Ab concentration'), detection with a biotinylated anti-Axl antibody and avidin-HRP
Protocol: First ELISA experiments were realized. In the assay, 96 well plates (Immulon II, Thermo Fisher) were coated with a 5 μg/m of the 1613F12 solution in 1×PBS, overnight at 4° C. […] For the revelation step, a biotinylated-Axl antibody (in house product) was added at 0.85 μg/m for 1 hour at 37° C. This Axl antibody belongs to a distinct epitopic group. Then an avidin-horseradish peroxidase solution at 1/2000° in diluent buffer is added to the wells. Then the TMB substrate solution is added for 5 min. After addition of the peroxydase stop solution, the absorbance at […] was measured with a microplate reader.

[3] = target: T2, recombinant mouse Axl-Fc (R and D systems, cat No 854-AX/CF) (mouse, UniProt Q00993 19-445); experiment: ELISA on coated rmAxl-Fc, detection with goat anti-mouse IgG-HRP
T2 construct: extracellular domain; Bought protein; also called rmAxl-Fc; murine Axl ECD domain; not shown: Fc portion (coating control with anti-human IgG Fc)
T2 sequence (looked up): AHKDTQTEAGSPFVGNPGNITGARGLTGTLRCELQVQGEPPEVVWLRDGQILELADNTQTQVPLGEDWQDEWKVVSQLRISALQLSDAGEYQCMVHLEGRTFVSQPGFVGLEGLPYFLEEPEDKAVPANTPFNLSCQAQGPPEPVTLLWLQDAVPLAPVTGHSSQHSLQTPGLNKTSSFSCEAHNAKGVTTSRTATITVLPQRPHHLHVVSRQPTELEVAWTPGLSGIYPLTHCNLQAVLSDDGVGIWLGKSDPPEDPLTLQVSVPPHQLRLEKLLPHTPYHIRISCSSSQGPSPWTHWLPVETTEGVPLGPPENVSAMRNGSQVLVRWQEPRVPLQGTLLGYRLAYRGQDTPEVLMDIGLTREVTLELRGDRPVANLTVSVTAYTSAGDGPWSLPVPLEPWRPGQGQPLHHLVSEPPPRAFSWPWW
Protocol: Briefly, the recombinant mouse Axl-Fc (R and D systems, cat No 854-AX/CF) proteins were coated overnight at 4° C. to Immulon II 96-well plates and, after a 1 h blocking step with a 0.5% gelatine solution, the 1613F12 purified antibody was added for one additional hour at 37° C. at starting concentration of 5 μg/m (3.33 10⁻⁸M). Then ½ serial dilutions were done over 12 columns. Plates were then washed and a goat anti-mouse (Jackson) specific IgG HRP was added for 1 h at 37° C. Reaction development was performed using the TMB substrate solution. […] Coating controls are performed in presence of a goat anti-human IgG Fc polyclonal serum coupled with HRP (Jackson, ref 109-035-098) and/or in presence of a HRP-coupled anti-Histidine antibody (R and D Systems, ref: MAB050H).

B1: 1613F12 antibody (murine form) (antibody, V domains shown)
VH: EVHLQQSGAELVKPGASVKLSCTASGFNIRDTYIHWVKQRPEQGLEWIGRLDPANGHTKYGPNFQGRATMTSDTSSNTAYLQLSSLTSEDTAVYYCARGAYYYGSSGLFYFDYWGQGTTLSVSS
VL: DVQITQSPSYLATSPGETITINCRASKSISKYLAWYQEKPGKTNKLLIYSGSTLQSGVPSRFSGSGSGTDFTLTISSLEPEDFAMYFCQQHHEYPLTFGAGTELELK
notes: Whole murine monoclonal antibody purified from a hybridoma; a murine IgG1 (9G4) serves as its isotype control; also called m1613F12; monoclonal antibody 1613F12 derived from the hybridoma I-4505
IC50 (read off the curve) [1]: ~20 nM
EC50 (read off the curve) [2]: ~0.04 µg/mL
binding result [3]: no binding (tested: log -7.5 M)
